“Also recorded” adds a separate entry of the source.
Legend:
4T1 cells = assay: Repeated dosing of Nani-P2 and cyclophosphamide in 4T1 tumor-bearing mice; type: in vivo, mouse; details: cyclophosphamide 80 mg/kg IP weekly from day 10
Experimental: Four groups of 10 BALB/c mice were implanted with 1×10^4 4 T1 cells SC into the mammary fat pad. Treatment was initiated when tumor diameters reached 4-5 mm, on day 10. Control mice were injected IV with PBS at 3 days intervals, while alternating treatment mice received 3 doses of drug every 3 days in rotating 10 day cycles. Tumor burden (tumor size mm^3) was calculated using a standard formula. CY (cyclophosphamide alone) mice were injected IP weekly with 80 mg/kg per mouse beginning on day 10. Cy/Nani-P2 (cyclophosphamide first followed by Nani-P2) mice were first injected IP with cyclophosphamide (80 mg/kg) at 3 days intervals for three doses starting at day 10 and then injected IV with Nani-P2 (40 ng) at 3 days intervals for three doses in rotation. The cycle of 3 doses of CY followed by 3 doses of Nani-P2 was repeated until day 50. Nani-P2/CY (Nani-P2 first followed by cyclophosphamide) mice were first injected IV with Nani-P2 (40 ng) at 3 day intervals for 3 doses starting on day 10 and then injected i.p. with cyclophosphamide at 3 day intervals in rotation. The cycle of 3 doses of Nani-P2 followed by 3 doses of CY was repeated until day 50.

4T1 breast tumor = assay: 4T1 primary breast tumor growth in BALB/c mice; type: in vivo, mouse; details: 400 ng partially-purified, SC, days 0, 7, 14, 21 (Nani-P3 also 2 μg); from day 15, p<0.05
Experimental: BALB/c mice were injected (SC) with 1×10^4 4 T1, 1×10^5 TS/A or 2×10^5 SM1 cells, respectively, in the left mammary pad on day 0. […] The control group received PBS injection. […] Tumor burden (tumor volume) was measured and recorded three times weekly. Animals were sacrificed when tumors reached a volume of 15 mm in diameter and the tumors harvested and weighed.
The therapeutic effect of systemic administration of synthetic, Tat-derived compositions in murine models of breast cancer was investigated. […]

O=P1(N(CCCl)CCCl)NCCCO1 (stereo not drawn) [cyclophosphamide, reference compound]
mice dead by day 42 (4T1 cells): 10/10

B1: Nani-P3: Tat derivative polypeptide SEQ ID NO:4; TF SIVsmm, cysteine-rich murine βdefensin, C-terminal HIV-1 (protein)
chain: METPLKEQENSLESCREHSSSISEVDVPTPVSCLRKGGRCWNRCIGNTRQIGSCGVPFLKCCKRKPFTRKGLGISYGRKKRRQRRRAPQDSQTHQASLSKQPASQSRGDPTGPTESKKKVERETETDPFD
modifications: Tat derivative polypeptide
4T1 tumor burden versus PBS control (4T1 breast tumor): less effective at suppressing 4T1 primary tumor growth; also recorded: no difference

B2: Nani-P1: Tat derivative polypeptide SEQ ID NO:2; TF HIV-1, cysteine-rich HIV-1, C-terminal HIV-1 (protein)
chain: MEPVDANLEAWKHAGSQPRKTACTTCYCKKCCFHCQVCFTRKGLGISYGRKKRRQRRRAPQDSQTHQASLSKQPASQSRGDPTGPTESKKKVERETETDPFD
modifications: Tat derivative polypeptide
4T1 tumor burden versus PBS control (4T1 breast tumor): significantly reduced tumor burden; also recorded: significant

Reference: US10159707B2, “Treatment of cancers with immunostimulatory HIV Tat derivative polypeptides” (PIN Pharma, Inc., priority 2013, dated 2018)
